Patent US20030207791A1, “Materials and methods relating to the treatment of leukaemias” (priority 2000, published 2003)

How the values were obtained:
GST-NCoR = molecular target: T1, GST-NCoR (Mus musculus, UniProt Q60974); experiment: GST-NCoR pull-down assay with in vitro translated 35S labelled proteins; assay type: binding
T1 construct: made in house
T1 sequence (Q60974 1782-2453): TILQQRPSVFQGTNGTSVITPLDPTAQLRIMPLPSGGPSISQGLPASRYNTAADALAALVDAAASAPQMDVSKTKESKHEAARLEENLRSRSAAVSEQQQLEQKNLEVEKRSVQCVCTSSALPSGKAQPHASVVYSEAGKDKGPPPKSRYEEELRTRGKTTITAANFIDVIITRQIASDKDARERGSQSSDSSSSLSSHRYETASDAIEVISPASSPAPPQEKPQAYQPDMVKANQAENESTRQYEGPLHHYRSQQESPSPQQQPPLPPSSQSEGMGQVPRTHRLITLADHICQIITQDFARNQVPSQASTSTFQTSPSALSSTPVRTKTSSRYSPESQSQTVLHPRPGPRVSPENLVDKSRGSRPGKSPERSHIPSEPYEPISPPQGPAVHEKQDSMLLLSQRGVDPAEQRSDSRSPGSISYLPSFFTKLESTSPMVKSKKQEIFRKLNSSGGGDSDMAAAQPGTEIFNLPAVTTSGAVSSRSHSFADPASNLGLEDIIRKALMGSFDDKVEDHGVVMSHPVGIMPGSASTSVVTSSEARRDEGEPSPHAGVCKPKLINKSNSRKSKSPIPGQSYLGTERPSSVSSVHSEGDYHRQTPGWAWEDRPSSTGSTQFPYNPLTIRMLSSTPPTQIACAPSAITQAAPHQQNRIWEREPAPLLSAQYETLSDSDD
Method: FIG. 1. Enhanced recruitment of NCoR by PML-RAR is due to the coiled coil region of PML. Increasing amounts of GST -NCoR (from 150 ng to 10 μg) coupled to agarose beads were incubated with the indicated in vitro translated, ^35-S labelled proteins. On the left, a schematic representation of the in vitro translated products, with the tripartite motif of PML highlighted (R, RING finger; B, B boxes; CC, coiled coil). The input lanes are loaded with the same amounts used in the pull-down experiments.
Recruitment of the NCoR-HDAC complex is crucial for the transforming potential of PML-RAR. At low concentrations of RA (1-100 nM), the stability of the PML-RAR-NCoR complex is higher than that of the RAR-NCoR complex (Grignani et al., 1998; He et al., 1998; Lin et al., 1998). […] Pull-down assays were performed by incubation of in vitro translated, ^35S labelled PML-RAR or RAR with GST-NCoR coupled to agarose beads.
GST-NCoR (1782-2453) or GST-NCoR (RDIII) purification and in vitro interaction experiments were performed as described, incubating the indicated amounts of GST-NCoR attached to a constant amount of glutathione-agarose beads in the presence of the appropriate ^35-S labelled, in vitro translated proteins(Gelmetti et al., 1998; Grignani et al., 1998; Zamir et al., 1996). The input lanes represent 100% of the total. Coimmunoprecipitation experiments were performed as described(Gelmetti et al., 1998), using extracts from transiently transfected COS-1 cells, or in vitro translated products.

[1] = tested on: RARE-G5-TATA reporter (GAL4-VP16 driven transcription); experiment: Transcriptional repression of GAL4-VP16 activation, RARE-G5-TATA reporter, transfected HeLa cells; assay type: cell-based
Method: FIG. 2. Role of the coiled coil of PML in the altered transcriptional properties of PML-RAR (A): Transcriptional repression by RAR and fusion proteins. Hela cells were co-transfected with the RARE-G5-TATA reporter in the absence (C) or presence of increasing amounts (50, 100, 250, 1000 ng) of the indicated expression vectors and then harvested 48 hours after transfection. Levels of expression of RAR and fusion proteins after transfection are shown in (C). (B) RARE and NCoR dependent transcriptional repression by RAR and fusion proteins. Hela cells were co-transfected with the RARE-G5-TATA or the G5-TATA, reporters and 1 μg of control expression vector (C), RAR (R), PML-RAR (P/R) and their respective AHT derivatives, as indicated. (D) RA sensitivity of RAR and fusion proteins. Cells were co-transfected with 500 ng of the indicated expression vectors. 24 hours after transfection, RA was added at the following concentrations: 1, 10, 100 nM, 1, 10 μM, and cells were harvested after additional 24 hours.
To test this hypothesis, the inventors devised an artificial, reporter system to measure transcriptional repression by RAR and chimeric proteins. The RARE-G5-TATA reporter construct has five GAL4 response elements fused to a minimal promoter region: upstream of the GAL4 sites, a RA responsive element (RARE) allows binding of RAR (or fusion proteins). […] RAR over-expression led to decrease of GAL4-VP16 activation, with 30-40% repression observed with the maximal amount of co-transfected RAR expression vector (1 μg, FIG. 2A), while it exerted no effect on the GAL4-VP16-mediated activation of a cognate promoter lacking the RARE (FIG. 2B). A RAR construct carrying the AHT mutation, which abrogates NCoR binding (Horlein et al., 1995), was unable to prevent activation of the RARE-G5-TATA promoter by GAL4-VP16 (FIG. 2B).
Next, the inventors tested the transcriptional regulatory functions of PML-RAR (or derivatives). […] At the maximal concentration tested (1 μg), the inventors observed 80-90% repression with PML-RAR and 30-40% with RAR (FIG. 2A).
Transient transfection of HeLa, NIH 3T3, SAOS and C33A cells was performed by calcium phosphate as described (Lillie and Green, 1989; Minucci et al., 1994). p53-/- MEFs were transiently transfected by lipofection as described (Pearson et al., 2000). Light units were normalized to expression of a co-transfected β-galactosidase expression plasmid. Results are presented as the mean+standard deviations of at least three independent experiments.

[2] = tested on: U937 cells expressing PML-RAR under the control of an inducible promoter; experiment: Differentiation (CD14) of U937 cells with inducible PML-RAR treated with vitamin D and TGFβ; assay type: cell-based; settings: for differentiated, CD14+ cells: cells expressing the coiled coil of PML, vitamin D and TGFβ
Description: The cells were either uninduced (ctr column), or induced to express PML-RAR (PML-RAR column). Cells were transduced with retroviral vectors encoding the coiled coil of PML (RBCC) and GFP as a marker, or with retroviral vectors encoding GFP alone as a control (control). […] In cells expressing the coiled coil of PML (gated in the cytofluorimetric analysis based on the positivity for the GFP marker), PML-RAR was unable to block efficiently differentiation (from 90% to 70%). Levels of expression of PML-RAR were unchanged by expressing the coiled coil region of PML.
RAR oligomerization through the coiled coil region of PML is required for its leukemogenic activity, and deletion of the PML coiled coil is sufficient to lead to loss of oncogenic potential (Minucci et al., 2000). Small molecule compounds able to disrupt PML-RAR oligomers would therefore be able to revert the leukemic phenotype.

B1: CC-RAR: fusion of the coiled coil region of PML to RAR (protein)
chain: SELKCDISAEIQQRQEELDAMTQALQALQEQDSAEGAVHAQMHAAVGQLGRARAETEELIRERVRQVVAHVRAQERELLEAVDARYQRDYEEMASRLGRLDAVLQRIRTGSALVQRMKCYASDQEVLDMHGFLRQALCRLRMASNSSSCPTPGGGHLNGYPVPPYAFFFPPMLGGLSPPGALTTLQHQLPVSGYSTPSPATIETQSSSSEEIVPSPPSPPPLPRIYKPCFVCQDKSSGYHYGVSACEGCKGFFRRSIQKNMVYTCHRDKNCIINKVTRNRCQYCRLQKCFEVGMSKESVRNDRNKKKKEVPKPECSESYTLTPEVGELIEKVRKAHQETFPALCQLGKYTTNNSSEQRVSLDIDLWDKFSELSTKCIIKTVEFAKQLPGFTTLTIADQITLLKAACLDILILRICTRYTPEQDTMTFSDGLTLNRTQMHNAGFGPLTDLVFAFANQLLPLEMDDAETGLLSAICLICGDRQDLEQPDRVDMLQEPLLEALKVYVRKRRPSRPHMFPKMLMKITDLRSISAKGAERVITLKMEIPGSMPPLIQEMLENSEGLDTLSGQPGGGGRDGGGLAPPPGSCSPSLSPSSNRSSPATHSP
- binding to GST-NCoR (GST-NCoR; increasing amounts of GST-NCoR): same characteristics of binding as PML-RAR
- capacity to repress GAL4-VP16 driven transcription [1]: as strongly as PML-RAR

B2: RAR: retinoic acid receptor α, wild type (protein)
chain: MASNSSSCPTPGGGHLNGYPVPPYAFFFPPMLGGLSPPGALTTLQHQLPVSGYSTPSPATIETQSSSSEEIVPSPPSPPPLPRIYKPCFVCQDKSSGYHYGVSACEGCKGFFRRSIQKNMVYTCHRDKNCIINKVTRNRCQYCRLQKCFEVGMSKESVRNDRNKKKKEVPKPECSESYTLTPEVGELIEKVRKAHQETFPALCQLGKYTTNNSSEQRVSLDIDLWDKFSELSTKCIIKTVEFAKQLPGFTTLTIADQITLLKAACLDILILRICTRYTPEQDTMTFSDGLTLNRTQMHNAGFGPLTDLVFAFANQLLPLEMDDAETGLLSAICLICGDRQDLEQPDRVDMLQEPLLEALKVYVRKRRPSRPHMFPKMLMKITDLRSISAKGAERVITLKMEIPGSMPPLIQEMLENSEGLDTLSGQPGGGGRDGGGLAPPPGSCSPSLSPSSNRSSPATHSP
- higher amounts of GST-NCoR required to obtain significant binding, compared with PML-RAR (GST-NCoR; GST-NCoR 150 ng to 10 μg): 15-30 fold
- amount of expression vector necessary to measure significant transcriptional repression [1]: at least 250 ng
- repression of GAL4-VP16 activation ([1]; maximal amount of expression vector, 1 μg): 30-40%

B3: coiled coil of PML: coiled coil of PML including the additional amino-terminal region, expressed from retroviral vector (protein)
chain: MEPAPARSPRPQQDPARPQEPTMPPPETPSEGRQPSPSPSPTERAPASEEEFQFLRCQQCQAEAKCPKLLPCLHTLCSGCLEASGMQCPICQAPWPLGADTPALDNVFFESLQRRLSVYRQIVDAQAVCTRCKESADFWCFECEQLLCAKCFEAHQWFLKHEARPLAELRNQSVREFLDGTRKTNNIFCSNPNHRTPTLTSIYCRGCSKPLCCSCALLDSSHSELKCDISAEIQQRQEELDAMTQALQEQDSAFGAVHAQMHAAVGQLGRARAETEELIRERVRQVVAHVRAQERELLEAVDARYQRDYEEMASRLGRLDAVLQRIRTGSALVQRMKCYASDQEVLDMHGFLRQALCRLR
- differentiated, CD14+ cells ([2]; PML-RAR induced): 70%
- toxicity ([2]; uninduced cells): did not notice appreciable toxicity
- differentiated, CD14+ cells ([2]; uninduced): 90%
